Data reported in article PMC12501296, “P4HA2 interacted with ATAD3A to modulate PINK1/parkin-dependent mitophagy and ^125I brachytherapy sensitization in esophageal carcinoma” (Cell Death & Disease, 2025).

Biological target: T1, ATAD3A-HA, in vitro translated (UniProt Q9NVI7-2 1-586)
T1 construct: ATAD3A (ATPase family AAA domain-containing 3A); the truncation map of the ATAD3A-HA plasmids ends at residue 586, which fits the 586-residue isoform; read as C-terminal; also called ATAD3A-HA (pcDNA3.1 vector); source: in vitro translated (TnT quick coupled transcription/translation, Promega), then purified
T1 sequence (looked up): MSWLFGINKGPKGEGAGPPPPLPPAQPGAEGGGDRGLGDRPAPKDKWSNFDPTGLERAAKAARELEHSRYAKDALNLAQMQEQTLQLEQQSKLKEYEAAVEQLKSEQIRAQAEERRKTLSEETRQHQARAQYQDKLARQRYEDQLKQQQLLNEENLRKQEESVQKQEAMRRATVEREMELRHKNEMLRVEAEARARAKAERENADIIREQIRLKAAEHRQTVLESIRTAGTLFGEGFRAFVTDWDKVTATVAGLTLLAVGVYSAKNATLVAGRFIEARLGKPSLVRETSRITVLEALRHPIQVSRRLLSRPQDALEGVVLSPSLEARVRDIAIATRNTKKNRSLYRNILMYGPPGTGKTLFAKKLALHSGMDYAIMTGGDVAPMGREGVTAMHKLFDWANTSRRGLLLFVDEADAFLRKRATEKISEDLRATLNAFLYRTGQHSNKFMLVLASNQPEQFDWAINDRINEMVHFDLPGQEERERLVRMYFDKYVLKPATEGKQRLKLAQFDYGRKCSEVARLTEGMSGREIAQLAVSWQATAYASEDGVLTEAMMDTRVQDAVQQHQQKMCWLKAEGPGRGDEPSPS
Test: co-IP; P4HA2-FLAG and ATAD3A-HA made by TnT quick coupled transcription/translation (30 °C, 90 min), purified, then co-IP
Conditions: both partners purified

B1: P4HA2-FLAG, in vitro translated (natural protein, UniProt O15460 1-535, looked up)
chain: MKLWVSALLMAWFGVLSCVQAEFFTSIGHMTDLIYAEKELVQSLKEYILVEEAKLSKIKSWANKMEALTSKSAADAEGYLAHPVNAYKLVKRLNTDWPALEDLVLQDSAAGFIANLSVQRQFFPTDEDEIGAAKALMRLQDTYRLDPGTISRGELPGTKYQAMLSVDDCFGMGRSAYNEGDYYHTVLWMEQVLKQLDAGEEATTTKSQVLDYLSYAVFQLGDLHRALELTRRLLSLDPSHERAGGNLRYFEQLLEEEREKTLTNQTEAELATPEGIYERPVDYLPERDVYESLCRGEGVKLTPRRQKRLFCRYHHGNRAPQLLIAPFKEEDEWDSPHIVRYYDVMSDEEIERIKEIAKPKLARATVRDPKTGVLTVASYRVSKSSWLEEDDDPVVARVNRRMQHITGLTVKTAELLQVANYGVGGQYEPHFDFSRNDERDTFKHLGTGNRVATFLNYMSDVEAGGATVFPDLGAAIWPKKGTAVFWYNLLRSGEGDYRTRHAACPVLVGCKWVSNKWFHERGQEFLRPCGSTEVD
notes: P4HA2 (Prolyl-4-Hydroxylase Alpha Subunit 2); read as C-terminal; also called P4HA2-FLAG (pcDNA3.1 vector); source: in vitro translated (TnT quick coupled transcription/translation, Promega), then purified
  binding result: binds
